Test results reported in patent US20140242093A1, “METHODS AND COMPOSITIONS FOR MODULATING THE INNATE IMMUNE RESPONSE AND/OR MYOGENESIS IN A MAMMALIAN SUBJECT” (FRED HUTCHINSON CANCER RESEARCH CENTER, priority 2011, published 2014).

Test system: control human primary myoblasts
Assay: Expression microarray of primary myoblasts transduced with lentivirus carrying DUX4-fl, DUX4-s or GFP
Experimental: Primary human myoblasts were collected and cultured as previously described (Snider et al., 2010). Primary myoblasts were maintained at or below 70% confluency for proliferation. For differentiation, cells were allowed to reach 95-100% confluency in growth medium. Once confluency was reached, the cells were changed to differentiation medium (F10 media supplemented with 1% horse serum, 10 μg/mL insulin, and 10 μg/mL transferrin, penicillin/streptomycin) and maintained for 4 days. Human RD cells were grown in DMEM in 10% bovine calf serum (Hyclone) and penicillin/streptomycin. The primary myoblasts were transduced with lentivirus carrying DUX-fl, DUX4- or GFP (MOI=15).
Expression microarrays were performed on the transduced cells at 24 hours after transduction as follows. […] Samples were analyzed by Illumina Human Whole Genome microarrays. Probe intensities were corrected, normalized, and summarized by the Lumi package of Bioconductor (Du et al., 2008). Differentially expressed genes were identified by the LIMMA package of Bioconductor (Wettenhall and Smyth, 2004). Gene set enrichment analysis (GSEA) was performed using the Bioconductor GOstats package (Falcon and Gentleman, 2007).

B1: DUX4-s: short splice form of DUX4 (SEQ ID NO:112), keeps the double-homeobox domains, lacks the C-terminal activation domain (protein, listed as Homo sapiens)
chain: MALPTPSDSTLPAEARGRGRRRRLVWTPSQSEALRACFERNPYPGIATRERLAQAIGIPEPRVQIWFQNERSRQLRQHRRESRPWPGRRGPPEGRRKRTAVTGSQTALLLRAFEKDRFPGIAAREELARETGLPESRIQIWFQNRRARHPGQGGRAPAQV
- fc of XPO1 (expression array) (Refseq NM_003400.3): −0.2325
- fc of ZFP36 (expression array) (Refseq NM_003407.2): 0.2317
- ZKSCAN1 fc (Refseq NM_003439.1): 0.3802
- fc of Cxorfl2 (expression array) (Refseq NM_003492.1): 0.03462
- fc of TAGLN2 (expression array) (Refseq NM_003564.1): 0.05495
- fc of EEA1 (expression array) (Refseq NM_003566.2): 1.034
- IFITM1 expression fc (Refseq NM_003641.3, cultured human skeletal muscle): 0.3441
- fc of VAMP8 (expression array) (Refseq NM_003761.2): 0.002691
- fc of VAMP4 (expression array) (Refseq NM_003762.3): 0.4731
- RNGTT expression fc (Refseq NM_003800.3): −0.5916
- RIPK1 fc (Refseq NM_003804.3): −0.2407
- TNFSF10 fc (Refseq NM_003810.2): 2.972
- TNFRSF14 expression fc (Refseq NM_003820.2, cultured human skeletal muscle): 0.5666
- fc of RIOK3 (expression array) (Refseq NM_003831.2): 1.133
- TNFRSF10A fc (Refseq NM_003844.2): 0.8441
- PEX11B fc (Refseq NM_003846.1): −0.2212
- CES2 expression fc (Refseq NM_003869.4, cultured human skeletal muscle): 0.06106
- CFLAR expression fc (Refseq NM_003879.3, cultured human skeletal muscle): 0.5313
- fc of ASAP2 (expression array) (Refseq NM_003887.2): −0.3423
- CCNA1 expression fc (Refseq NM_003914.2): 1.884
- fc of USP13 (expression array) (Refseq NM_003940.2): −1.038
- NPR2 fc (Refseq NM_003995.3): −0.04506
- fc of OSMR (expression array) (Refseq NM_003999.1): 1.118
- CHI3L2 expression fc (Refseq NM_004000.2, cultured human skeletal muscle): 0.2573
- IRF7 expression fc (Refseq NM_004029.2, cultured human skeletal muscle): 1.137
- CRY1 expression fc (Refseq NM_004075.2): −0.1268
- PSPN expression fc (Refseq NM_004158.2): −0.03876
- BEST1 fc (Refseq NM_004183.2): 0.2661
- UBE2L6 expression fc (Refseq NM_004223.3, cultured human skeletal muscle): 0.5808
- fc of STK17B (expression array) (Refseq NM_004226.2): 1.309
- fc of SLC9A3R1 (expression array) (Refseq NM_004252.2): −0.06339
- BST2 expression fc (Refseq NM_004335.2, cultured human skeletal muscle): 0.21
- CREB1 fc (Refseq NM_004379.2): −0.08534
- fc of HOXB7 (expression array) (Refseq NM_004502.3): −0.06124
- SP110 expression fc (Refseq NM_004510.2, cultured human skeletal muscle): 1.154
- PSPH fc (Refseq NM_004577.3): 0.005654
- XPC expression fc (Refseq NM_004628.3, cultured human skeletal muscle): 0.2629
- PABPN1 expression fc (Refseq NM_004643.1): −0.2585
- MAP3K6 fc (Refseq NM_004672.3): −0.2268
- fc of SLC16A5 (expression array) (Refseq NM_004695.2): −0.03968
- fc of SFRS2IP (expression array) (Refseq NM_004719.2): −1.068
- fc of ARHGEF2 (expression array) (Refseq NM_004723.2): −0.07136
- TIAF1 fc (Refseq NM_004740.3): −0.5294
- NOLC1 expression fc (Refseq NM_004741.1): 0.4977
- SLIT2 expression fc (Refseq NM_004787.1): 0.8501
- LPXN fc (Refseq NM_004811.1): −0.0176
- PEX16 fc (Refseq NM_004813.1): 0.02427
- C9orf61 expression fc (Refseq NM_004816.2): −0.2563
- MED26 expression fc (Refseq NM_004831.3): 0.1371
- fc of GSTO1 (expression array) (Refseq NM_004832.1): 0.3142
- fc of LITAF (expression array) (Refseq NM_004862.2): 1.12
- fc of SCAMPI (expression array) (Refseq NM_004866.4): 1.369
- fc of APBA3 (expression array) (Refseq NM_004886.3): 0.001776
- SERPINI1 expression fc (Refseq NM_005025.3): 0.0354
- TRIM25 expression fc (Refseq NM_005082.4, cultured human skeletal muscle): 0.5139
- SFRS17A expression fc (Refseq NM_005088.2): 0.2404
- ISG15 expression fc (Refseq NM_005101.1, cultured human skeletal muscle): 0.128
- MVP fc (Refseq NM_005115.3): −0.1162
- MED13 expression fc (Refseq NM_005121.2): 0.0264
- fc of REC8 (expression array) (Refseq NM_005132.2): −0.244
- ATP6V0A1 fc (Refseq NM_005177.3): −0.04497
- CEBPB expression fc (Refseq NM_005194.2, cultured human skeletal muscle): 0.2783
- ETS1 fc (Refseq NM_005238.2): −0.1783
- FAT1 fc (Refseq NM_005245.3): 0.4055
- GPR37 expression fc (Refseq NM_005302.2): 0.2151
- H1F0 expression fc (Refseq NM_005318.2, cultured human skeletal muscle): 0.5004
- HSPA1A expression fc (Refseq NM_005345.4): −0.02035
- HSPA1B expression fc (Refseq NM_005346.3): 0.359
- NEFM expression fc (Refseq NM_005382.1): 0.8485
- SHMT2 fc (Refseq NM_005412.4): 0.2615
- STAT2 expression fc (Refseq NM_005419.2, cultured human skeletal muscle): 0.1861
- EOMES expression fc (Refseq NM_005442.2): 0.06484
- TOM1 fc (Refseq NM_005488.1): 4.81E−05
- HLA-B expression fc (Refseq NM_005514.5, cultured human skeletal muscle): 0.3367
- HLA-E fc (Refseq NM_005516.4): 0.8147
- IFI16 expression fc (Refseq NM_005531.1, cultured human skeletal muscle): 0.6846
- IFI27 expression fc (Refseq NM_005532.3, cultured human skeletal muscle): 0.2746
- IFI35 expression fc (Refseq NM_005533.2, cultured human skeletal muscle): 0.9169
- IRS1 fc (Refseq NM_005544.1): 0.2753
- KLC1 expression fc (Refseq NM_005552.4): −0.06609
- RGS4 expression fc (Refseq NM_005613.3): −0.4837
- SGK expression fc (Refseq NM_005627.2): −0.1104
- TAF4B expression fc (Refseq NM_005640.1): −0.0444
- fc of TERF2 (expression array) (Refseq NM_005652.2): 0.3314
- fc of REEP5 (expression array) (Refseq NM_005669.4): −1.138
- fc of HIPK3 (expression array) (Refseq NM_005734.3): 1.555
- ARIH1 expression fc (Refseq NM_005744.2): 0.784
- fc of NAMPT (expression array) (Refseq NM_005746.2): 1.21
- LHFPL2 fc (Refseq NM_005779.1): −0.1437
- STX6 expression fc (Refseq NM_005819.4): −0.4696
- fc of RCAN2 (expression array) (Refseq NM_005822.2): −1.005
- MFGE8 fc (Refseq NM_005928.1): 0.03254
- MT1X expression fc (Refseq NM_005952.2, cultured human skeletal muscle): 0.3162
- SNAI1 expression fc (Refseq NM_005985.2): −0.03657
- RBM12 expression fc (Refseq NM_006047.4): −0.3748
- TRIM22 expression fc (Refseq NM_006074.3, cultured human skeletal muscle): −0.01965
- CBARA1 expression fc (Refseq NM_006077.2): −0.1543
- TUBB2C expression fc (Refseq NM_006088.5): −0.5391
- LASP1 fc (Refseq NM_006148.1): −0.4552
- NFE2L2 fc (Refseq NM_006164.2): 0.329
- OAS3 expression fc (Refseq NM_006187.2, cultured human skeletal muscle): 0.8654
- fc of PDGFRL (expression array) (Refseq NM_006207.1): 1.203
- PSME1 fc (Refseq NM_006263.2): 0.2775
- STK3 expression fc (Refseq NM_006281.2): −0.215
- THY1 fc (Refseq NM_006288.2): −0.6444
- TNFAIP3 expression fc (Refseq NM_006290.2, cultured human skeletal muscle): 0.2793
- HSPB3 expression fc (Refseq NM_006308.1): −0.7934
- NXF1 expression fc (Refseq NM_006362.4): −0.3456
- fc of ATG7 (expression array) (Refseq NM_006395.1): 0.2083
- SLC34A2 expression fc (Refseq NM_006424.2): −0.03231
- TXNRD2 fc (Refseq NM_006440.3): −0.1666
- fc of MXD4 (expression array) (Refseq NM_006454.2): −0.9168
- ARID3B expression fc (Refseq NM_006465.2): −0.07455
- TXNIP expression fc (Refseq NM_006472.2, cultured human skeletal muscle): −0.01014
- ZNF217 expression fc (Refseq NM_006526.2): −0.3262
- FAM189B fc (Refseq NM_006589.2): 0.04019
- fc of TCFL5 (expression array) (Refseq NM_006602.2): 0.0336
- RFPL2 expression fc (Refseq NM_006605.1): 0.03122
- fc of NES (expression array) (Refseq NM_006617.1): −1.118
- HSPH1 expression fc (Refseq NM_006644.2): −0.4879
- HCP5 fc (Refseq NM_006674.2): 0.1443
- UGP2 fc (Refseq NM_006759.3): 0.1108
- IFI44L expression fc (Refseq NM_006820.1, cultured human skeletal muscle): 0.4651
- fc of CKAP4 (expression array) (Refseq NM_006825.2): 0.03538
- fc of ILVBL (expression array) (Refseq NM_006844.3): −0.2803
- KDELR3 fc (Refseq NM_006855.2): −0.444
- fc of GMPR (expression array) (Refseq NM_006877.2): 1.36
- SLC2A3 expression fc (Refseq NM_006931.1): 0.1012
- fc of HSPA13 (expression array) (Refseq NM_006948.4): 1.34
- ZBTB25 fc (Refseq NM_006977.2): 0.3463
- ADAMTS1 fc (Refseq NM_006988.3): 0.1765
- C1Oorf10 expression fc (Refseq NM_007021.2, cultured human skeletal muscle): 0.1432
- fc of DNAJB4 (expression array) (Refseq NM_007034.3): 0.413
- KATNA1 expression fc (Refseq NM_007044.2): 0.1132
- UBL3 expression fc (Refseq NM_007106.2): −0.807
- TESK2 expression fc (Refseq NM_007170.2): 0.1269
- NUP50 expression fc (Refseq NM_007172.3): 1.035
- fc of PACSIN2 (expression array) (Refseq NM_007229.1): −0.3253
- DUSP12 expression fc (Refseq NM_007240.1): 0.09869
